# ± gives the uncertainty stated by the source.
# B1: Transcription factor SOX-11, residues 50 to 117; numbered along this chain, P35716 (parent)
# chain: KRPMNAFMVWSKIERRKIMEQSPDMHNAEISKRLGKRWKMLKDSEKIPFIREAERLRLKHMADYPDYK
# Variants of: B1
# Test: abundance fitness (aPCA) (normalised: wild type 0, dead -1); higher = more abundant; growth selection in yeast, the domain comes from the species named
# Details: Homo sapiens
row,Variant,abundance fitness
1,A28F,-0.47 ± 0.058
2,A28E,-0.061 ± 0.16
3,A28G,-0.205 ± 0.053
4,A28M,-0.529 ± 0.21
5,A28W,-0.425 ± 0.17
6,A28R,-0.266 ± 0.056
7,Y67F,-0.097 ± 0.093
8,Y67C,-0.048 ± 0.1
9,Y67K,-0.007 ± 0.24
10,Y67W,0.17 ± 0.22
11,Y67T,-0.044 ± 0.12
12,K59S,-0.017 ± 0.044
13,K59F,-0.166 ± 0.054
14,K59H,0.106 ± 0.06
15,K59W,-0.323 ± 0.15
16,K59E,0.084 ± 0.16
17,K59T,0.075 ± 0.069
18,K59C,-0.099 ± 0.055
19,K59D,-0.052 ± 0.061
20,E52P,-0.982 ± 0.15
21,E52F,-0.546 ± 0.067
22,E52Y,-0.598 ± 0.082
23,E52C,-0.515 ± 0.064
24,E52V,-0.404 ± 0.057

row,Variant,abundance fitness
1,E52D,-0.438 ± 0.088
2,E52R,-0.735 ± 0.076
3,E29H,-0.666 ± 0.1
4,E29T,-0.753 ± 0.12
5,E29G,-0.792 ± 0.076
6,E29I,-0.815 ± 0.095
7,E29Y,-0.969 ± 0.11
8,K12F,-0.232 ± 0.067
9,K12P,-0.746 ± 0.18
10,K12G,-0.2 ± 0.062
11,K12W,-0.89 ± 0.32
12,K12N,0.014 ± 0.064
13,K12S,0.074 ± 0.053
14,I50F,-0.034 ± 0.052
15,I50S,-0.509 ± 0.057
16,I50Q,-0.007 ± 0.18
17,I50H,-0.005 ± 0.06
18,I50E,0.248 ± 0.11
19,I50G,-0.555 ± 0.071
20,W38D,-0.696 ± 0.09
21,W38Y,-0.641 ± 0.074
22,W38G,-0.865 ± 0.11
23,W38I,-0.716 ± 0.079
24,W38H,-0.851 ± 0.12

row,Variant,abundance fitness
1,W38L,-0.994 ± 0.12
2,W38V,-0.766 ± 0.081
3,W38S,-0.59 ± 0.063
4,W38T,-1.05 ± 0.16
5,D66Q,-0.115 ± 0.29
6,D66H,-0.115 ± 0.18
7,D66A,-0.206 ± 0.14
8,D66G,-0.027 ± 0.12
9,D66E,0.247 ± 0.18
10,R57P,-0.426 ± 0.11
11,R57G,-0.167 ± 0.059
12,R57C,-0.186 ± 0.058
13,R57F,-0.432 ± 0.054
14,P48K,-0.69 ± 0.2
15,P48D,-0.656 ± 0.12
16,P48S,-0.617 ± 0.086
17,P48R,-0.604 ± 0.12
18,A53R,-0.77 ± 0.087
19,A53W,-0.91 ± 0.2
20,A53V,-0.749 ± 0.085
21,Q21K,-0.303 ± 0.21
22,Q21W,-0.313 ± 0.15
23,Q21R,-0.235 ± 0.068
24,D43Y,-0.191 ± 0.047

row,Variant,abundance fitness
1,D43M,-0.079 ± 0.11
2,D43F,-0.047 ± 0.049
3,M4Y,-0.256 ± 0.06
4,M4Q,-0.248 ± 0.15
5,M4K,-0.539 ± 0.23
6,M19I,-0.062 ± 0.057
7,M19V,-0.042 ± 0.052
8,M19G,-0.435 ± 0.076
9,M19T,-0.103 ± 0.064
10,M19P,-0.769 ± 0.14
11,P23A,-0.391 ± 0.079
12,P23N,-0.843 ± 0.11
13,S31D,0.176 ± 0.059
14,S31R,-0.311 ± 0.082
15,S31T,0.029 ± 0.068
16,S31V,-0.064 ± 0.051
17,S31H,-0.244 ± 0.084
18,S31K,-0.096 ± 0.14
19,S31F,-0.246 ± 0.064
20,R16V,0 ± 0.054
21,R16M,-0.667 ± 0.21
22,R16W,-0.956 ± 0.4
23,R16Q,0.199 ± 0.21
24,R16F,-0.319 ± 0.058

row,Variant,abundance fitness
1,R55C,-0.416 ± 0.057
2,R55K,-0.177 ± 0.15
3,R55M,-0.521 ± 0.15
4,R55W,-0.277 ± 0.19
5,R55I,-0.246 ± 0.067
6,R55P,-0.868 ± 0.19
7,R51H,-0.289 ± 0.073
8,R51Y,-0.238 ± 0.058
9,R51L,-0.125 ± 0.054
10,R51S,-0.495 ± 0.053
11,M61V,0.048 ± 0.057
12,M61C,0.107 ± 0.05
13,M61A,0.144 ± 0.065
14,M61N,0.116 ± 0.053
15,M61F,-0.292 ± 0.06
16,M61D,0.09 ± 0.059
17,M61Q,0.077 ± 0.11
18,M61W,-0.221 ± 0.16
19,R33A,0.22 ± 0.063
20,R33E,0.343 ± 0.13
21,R33T,0.367 ± 0.069
22,R33W,0.125 ± 0.095
23,R33G,-0.54 ± 0.08
24,R33Y,0.167 ± 0.051

row,Variant,abundance fitness
1,R33N,-0.008 ± 0.057
2,R33H,-0.008 ± 0.066
3,R33C,0.178 ± 0.047
4,E54T,-0.7 ± 0.12
5,E54I,-0.751 ± 0.091
6,E54G,-0.714 ± 0.085
7,E54W,-0.576 ± 0.36
8,E54H,-0.641 ± 0.097
9,E54R,-0.74 ± 0.1
10,E54F,-0.762 ± 0.085
11,F49Y,0.048 ± 0.053
12,F49M,-0.301 ± 0.2
13,F49E,-0.792 ± 0.46
14,F49N,-0.881 ± 0.1
15,F49A,-0.761 ± 0.093
16,F49G,-0.739 ± 0.076
17,F49H,-0.739 ± 0.11
18,K17Y,-0.564 ± 0.075
19,K17V,-0.6 ± 0.085
20,K17L,-0.373 ± 0.078
21,K17N,-0.407 ± 0.061
22,S11L,-0.857 ± 0.18
23,S11H,-1.37 ± 0.45
24,S11N,-0.399 ± 0.14

row,Variant,abundance fitness
1,S11R,-0.767 ± 0.21
2,N5E,-0.172 ± 0.16
3,N5C,-0.321 ± 0.064
4,N5I,-0.601 ± 0.071
5,N5K,-0.956 ± 0.26
6,N5L,-0.65 ± 0.075
7,N5T,0.149 ± 0.056
8,K36H,-0.036 ± 0.068
9,K36N,0.094 ± 0.057
10,K36I,0.199 ± 0.058
11,G35M,0.17 ± 0.1
12,G35Y,0.126 ± 0.058
13,G35C,0.129 ± 0.051
14,D24M,-0.63 ± 0.32
15,D24F,-0.435 ± 0.066
16,D24H,-0.26 ± 0.079
17,D24Q,-0.147 ± 0.32
18,D24L,-0.507 ± 0.078
19,D24R,-0.456 ± 0.091
20,D24V,-0.643 ± 0.085
21,A62M,-0.181 ± 0.082
22,A62Y,-0.163 ± 0.043
23,R37K,-0.039 ± 0.094
